Here are results for 1 substance from patent US20180185502A1, “IMMOBILIZATION OF BIOMOLECULES BY SELF-ASSEMBLED NANOSTRUCTURES” (priority 2015, published 2018).

Type in all cases: biochemical
For test [1], the target named is T1, R. rubrum RubisCO (Rhodospirillum rubrum, UniProt P04718).
T1 sequence (P04718 1-466): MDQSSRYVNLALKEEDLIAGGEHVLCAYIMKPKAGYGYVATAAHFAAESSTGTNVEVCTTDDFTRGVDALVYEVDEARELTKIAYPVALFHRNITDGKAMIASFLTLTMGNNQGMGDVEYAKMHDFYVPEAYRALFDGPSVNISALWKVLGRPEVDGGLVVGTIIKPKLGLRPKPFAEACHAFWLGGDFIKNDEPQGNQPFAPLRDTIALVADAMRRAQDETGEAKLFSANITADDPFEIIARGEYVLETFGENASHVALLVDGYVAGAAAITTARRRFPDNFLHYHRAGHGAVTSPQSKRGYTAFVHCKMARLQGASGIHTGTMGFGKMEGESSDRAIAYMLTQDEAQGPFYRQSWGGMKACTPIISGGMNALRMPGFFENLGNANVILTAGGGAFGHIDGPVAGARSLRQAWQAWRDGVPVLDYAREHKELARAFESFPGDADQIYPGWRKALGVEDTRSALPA
The experiment in a line: RubisCO functional assay (activity of free, nanotube-bound or monomer-exposed enzyme). Conditions: initial functional assays.

For test [2], the target named is T1, R. rubrum RubisCO. The experiment in a line: Stability of nanotube-RubisCO co-assembly to proteolysis by subtilisin over 45 minutes. Conditions: within 45 minutes; FIG. 5. The procedure: Subtilisin is a non-specific, serine protease capable of rapidly degrading proteins by amide bond cleavage. The stability of the nanotube-RubisCO co-assembly to proteolysis by subtilisin was evaluated over 45 minutes and compared to the free R. rubrum RubisCO. […] In contrast, the bound enzyme retains 75% of its activity upon exposure to the protease over this time range.

The target of test [3] is T1, R. rubrum RubisCO. The experiment in a line: RubisCO functional assay (activity of free, nanotube-bound or monomer-exposed enzyme). Here is the method: Although the samples were identical in purity and composition, the resultant activity of the bound RubisCO varied. […] Thus, by pelleting the nanotube by ultracentrifugation, followed by additional washing of the pellet, prior to adding the enzyme, the activity increased dramatically to 67%.
Nanotubes for this experiment were set up with 10 mM monomer in 1 mL buffer and aged for ˜5 days at room temperature. Nanotubes were then isolated using ultracentrifugation and re-suspended back in 1 mL buffer with 0.1 mg of R. rubrum RubisCO. This suspension was incubated at 1° C. for 15 hrs prior to ultracentrifugation and re-suspension of the final nanotubes in 1 mL buffer.

Setting [4] is: Subtilisin (0.5 μg/ml; 30° C./1 hr).
Where [5] appears, read: RubisCO alone or with pre-formed nanotubes added.
The mark [6] stands for this setting: pre-formed nanotubes from 10 mM monomer aged ~5 days, isolated by ultracentrifugation, re-suspended with 0.1 mg RubisCO in 1 mL buffer, 15 hrs.

For the substance “Pure R. rubrum RubisCO: RubisCO dimer from the bacterium Rhodospirillum rubrum, a CO2-fixing enzyme, free form”, the “% Activity retained” value with R. rubrum RubisCO [1] (Heat (65° C./10 min)) turned out to be 77%; with R. rubrum RubisCO [1] (setting [4]) it was 7%; in the test with R. rubrum RubisCO [1] (untreated or no treatment stated, relative to pure R. rubrum RubisCO) it was 100%; with R. rubrum RubisCO [1] (untreated or no treatment stated, relative to pure R. rubrum RubisCO, listed as 0.1 mg/ml R. rubrum RubisCO (after 80K spin)), 104%; with R. rubrum RubisCO [3] (setting [5]), 100%; with R. rubrum RubisCO [3] (setting [6]), 100%. The “Activity” value came to 2248 nmol/min/mg in the test with R. rubrum RubisCO [1] (Heat (65° C./10 min)); 212 nmol/min/mg in the test with R. rubrum RubisCO [1] (setting [4]); 2903 nmol/min/mg with R. rubrum RubisCO [1] (untreated or no treatment stated); 3007 nmol/min/mg with R. rubrum RubisCO [1] (untreated or no treatment stated, listed as 0.1 mg/ml R. rubrum RubisCO (after 80K spin)); 3405 nmol/min/mg with R. rubrum RubisCO [3] (setting [5]); 1803 nmol/min/mg with R. rubrum RubisCO [3] (setting [6]). The “loss of activity in presence of subtilisin” value with R. rubrum RubisCO [2] was 80%.
